T1: B7H3 antigen on the surface of A375 cells (human, UniProt Q5ZPR3 29-534)
T1 construct: whole, on cells
T1 sequence (looked up): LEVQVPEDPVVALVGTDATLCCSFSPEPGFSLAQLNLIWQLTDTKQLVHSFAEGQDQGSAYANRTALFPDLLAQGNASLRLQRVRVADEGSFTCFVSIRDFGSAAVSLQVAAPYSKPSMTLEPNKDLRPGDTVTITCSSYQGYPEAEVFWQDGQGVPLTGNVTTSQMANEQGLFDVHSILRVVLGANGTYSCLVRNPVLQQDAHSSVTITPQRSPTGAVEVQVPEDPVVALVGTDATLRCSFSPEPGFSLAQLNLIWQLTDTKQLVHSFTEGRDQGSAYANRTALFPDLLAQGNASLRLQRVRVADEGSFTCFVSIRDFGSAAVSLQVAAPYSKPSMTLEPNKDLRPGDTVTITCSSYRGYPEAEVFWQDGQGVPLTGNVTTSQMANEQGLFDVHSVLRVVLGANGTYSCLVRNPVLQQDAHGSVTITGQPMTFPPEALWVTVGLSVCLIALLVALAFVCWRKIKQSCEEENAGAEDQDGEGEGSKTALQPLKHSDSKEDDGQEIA

T2: recombinant human DLL3 protein (Kactus Biosystems, Cat. No. DLL-HM103) (human, UniProt Q9NYJ7 27-492, limits assumed)
T2 construct: Bought protein coated on the ELISA plate; also called Human DLL3 proteins
T2 sequence (looked up): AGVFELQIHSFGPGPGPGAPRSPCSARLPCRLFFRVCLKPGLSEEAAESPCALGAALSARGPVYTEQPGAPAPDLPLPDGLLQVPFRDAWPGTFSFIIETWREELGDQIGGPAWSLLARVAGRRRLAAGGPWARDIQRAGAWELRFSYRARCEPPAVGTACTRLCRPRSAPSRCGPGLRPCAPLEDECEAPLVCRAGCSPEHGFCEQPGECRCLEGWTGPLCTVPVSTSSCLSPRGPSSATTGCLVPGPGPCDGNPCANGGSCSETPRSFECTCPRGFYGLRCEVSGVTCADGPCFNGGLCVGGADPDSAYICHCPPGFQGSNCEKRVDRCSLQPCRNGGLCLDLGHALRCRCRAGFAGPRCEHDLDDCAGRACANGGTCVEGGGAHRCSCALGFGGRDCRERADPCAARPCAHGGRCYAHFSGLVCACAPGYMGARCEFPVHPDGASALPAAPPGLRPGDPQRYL

B1: DSADC (antibody, V domains shown)
VH: QVQLVQSGAEVKKPGSSVKVSCKASGYTFTNYVMHWVRQAPGQGLEWMGYINPYNDDVKYNEKFKGRVTITADESTSTAYMELSSLRSEDTAVYYCARWGYYGSPLYYFDYWGQGTLVTVSS
VL: EIVLTQSPATLSLSPGERATLSCRASSRLIYMHWYQQKPGQAPRPLIYATSNLASGIPARFSGSGSGTDFTLTISSLEPEDFAVYYCQQWNSNPPTFGQGTKVEIKR
modifications: control linker-drug per CN104755494A conjugated to the antibody; average DAR 3.9 per antibody
notes: Control anti-B7H3 ADC; the tie of DSADC to M30 is by position and a drawing only; also called M30 antibody conjugate
B2: B-ADC55-1-6 (antibody, human IgG1, kappa, L234A L235A, V domains shown)
VH: QVQLVQSGAEVKKPGASVKVSCKASGYTFTDYFMNWVRQAPGQGLEWMGDVNPKTGSPSYNQKFKGRVTMTRDTSTSTVYMELSSLRSEDTAVYYCARRYGFLYSMDYWGQGTSVTVSS
VL: DIQMTQSPSSLSASVGDRVTITCRASQDISNYLNWYQQKPGKAVKVLIYYTSRLHSGVPSRFSGSGSGTDFTFTISSLQPEDIATYYCQQGNTHPFTFGGGTKVEIKR
modifications: linker-drug LD55-1 (exatecan payload) conjugated to sulfhydryls of reduced interchain disulfide cysteines; average DAR 5.7 per antibody
notes: Antibody-drug conjugate: 43B + LD55-1, DAR 5.7
B3: B-ADC2-1-6 (antibody, human IgG1, kappa, L234A L235A, V domains shown)
VH: B2 VH
VL: B2 VL
modifications: linker-drug LD2-1 (exatecan payload) conjugated to sulfhydryls of reduced interchain disulfide cysteines; average DAR 5.6 per antibody
notes: Antibody-drug conjugate: 43B + LD2-1, DAR 5.6
B4: B-ADC12-1-6 (antibody, human IgG1, kappa, L234A L235A, V domains shown)
VH: B2 VH
VL: B2 VL
modifications: linker-drug LD12-1 (exatecan payload) conjugated to sulfhydryls of reduced interchain disulfide cysteines; average DAR 6.0 per antibody
notes: Antibody-drug conjugate: 43B + LD12-1, DAR 6.0
B5: Farletuzumab (antibody, human IgG1, kappa)
heavy: not shown
light: DIQLTQSPSSLSASVGDRVTITCSVSSSISSNNLHWYQQKPGKAPKPWIYGTSNLASGVPSRFSGSGSGTDYTFTISSLQPEDIATYYCQQWSSYPYMYTFGQGTKVEIKRTVAAPSVFIFPPSDEQLKSGTASVVCLLNNFYPREAKVQWKVDNALQSGNSQESVTEQDSKDSTYSLSSTLTLSKADYEKHKVYACEVTHQGLSSPVTKSFNRGEC
notes: Naked anti-FRα antibody
B6: Farletuzumab-FcS (antibody, human IgG1, kappa, L234A L235A)
heavy: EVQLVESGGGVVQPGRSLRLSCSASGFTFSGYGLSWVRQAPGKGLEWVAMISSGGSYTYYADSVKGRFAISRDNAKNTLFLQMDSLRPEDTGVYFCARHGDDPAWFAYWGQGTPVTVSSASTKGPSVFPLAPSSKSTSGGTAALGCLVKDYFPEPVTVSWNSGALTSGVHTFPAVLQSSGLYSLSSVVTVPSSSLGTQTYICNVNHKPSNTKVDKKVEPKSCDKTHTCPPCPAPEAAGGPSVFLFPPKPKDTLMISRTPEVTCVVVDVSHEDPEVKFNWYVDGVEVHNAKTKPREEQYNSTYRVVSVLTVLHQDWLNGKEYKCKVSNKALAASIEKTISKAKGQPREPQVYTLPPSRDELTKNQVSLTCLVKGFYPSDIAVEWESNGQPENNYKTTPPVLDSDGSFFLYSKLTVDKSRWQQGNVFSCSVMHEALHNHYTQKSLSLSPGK
light: B5 light
notes: also called Farletuzumab-FS
B7: F-ADC55-1-8 (antibody, human IgG1, kappa)
heavy: not shown
light: B5 light
modifications: linker-drug LD55-1 (exatecan payload) conjugated to sulfhydryls of reduced interchain disulfide cysteines; average DAR 7.6 per antibody
notes: Antibody-drug conjugate: farletuzumab + LD55-1, DAR 7.6
B8: 33B (antibody, human IgG1, kappa, L234A L235A, V domains shown)
VH: QVQLVQSGAEVKKPGASVKVSCKASGYTFTDYYMKWVRQAPGQRLEWMGAFNLNNGDTFYNQKFKGRVTITRDTSASTAYMELSSLRSEDTAVYYCARDVYGYGDYWGQGTSVTVSS
VL: DIVMTQSPDSLAVSLGERATINCRASKSVSTSGYSYMHWYQQKPGQPPKLLIYLASNLDSGVPDRFSGSGSGTDFTLTISSLQAEDVAVYYCQHSRELPYTFGGGTKLEIKR
notes: Naked anti-DLL3 antibody
B9: D-ADC55-1-8 (antibody, human IgG1, kappa, L234A L235A, V domains shown)
VH: B8 VH
VL: B8 VL
modifications: linker-drug LD55-1 (exatecan payload) conjugated to sulfhydryls of reduced interchain disulfide cysteines; average DAR 8.0 per antibody
notes: Antibody-drug conjugate: 33B + LD55-1, DAR 8.0
B10: D-ADC2-1-8 (antibody, human IgG1, kappa, L234A L235A, V domains shown)
VH: B8 VH
VL: B8 VL
modifications: linker-drug LD2-1 (exatecan payload) conjugated to sulfhydryls of reduced interchain disulfide cysteines; average DAR 8.0 per antibody
notes: Antibody-drug conjugate: 33B + LD2-1, DAR 8.0
B11: D-ADC12-1-8 (antibody, human IgG1, kappa, L234A L235A, V domains shown)
VH: B8 VH
VL: B8 VL
modifications: linker-drug LD12-1 (exatecan payload) conjugated to sulfhydryls of reduced interchain disulfide cysteines; average DAR 8.0 per antibody
notes: Antibody-drug conjugate: 33B + LD12-1, DAR 8.0
B12: D-BATADC (antibody, human IgG1, kappa, L234A L235A, V domains shown)
VH: B8 VH
VL: B8 VL
modifications: control linker-drug BATLD conjugated to the antibody; average DAR 7.7 per antibody

biological target: T1, B7H3 antigen on the surface of A375 …; assay: flow cytometry (MFI) on B7H3-positive A375 cells, anti-human Alexa Fluor 488

Binder	EC50 [µg/mL]
B1	0.0925
B2	0.0378
B3	0.0416
B4	0.04

biological target: T3, FOLR1 antigen (Sino Biological, Cat. No. 11241-H08H) (UniProt P15328 25-233); assay: ELISA, FOLR1 coated at 0.1 µg/mL, anti-human IgG-HRP detection
T3 construct: Bought protein coated on the ELISA plate; also called FRα
T3 sequence (P15328 25-233 limits assumed): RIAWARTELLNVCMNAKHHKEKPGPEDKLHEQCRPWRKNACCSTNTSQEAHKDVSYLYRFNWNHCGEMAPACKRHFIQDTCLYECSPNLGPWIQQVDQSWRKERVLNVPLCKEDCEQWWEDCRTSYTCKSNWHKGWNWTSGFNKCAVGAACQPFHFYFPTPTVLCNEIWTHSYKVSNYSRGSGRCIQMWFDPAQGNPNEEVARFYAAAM

Binder	EC50 [pM]
B5	26.1
B6	19.9
B7	36.9

biological target: T2, recombinant human DLL3 protein (Kactus …); assay: ELISA, human DLL3 coated at 0.1 µg/mL, absorbance at 450 nm

Binder	EC50 [pM]	Emax
B8	1.87	2.5
B9	6.28	2.5
B10	4.64	2.5
B11	5.84	2.6
B12	5.27	2.6

From patent publication EP4702992A1 (CSPC Megalith Biopharmaceutical Co., Ltd., dated 2024)
